# Reference: article PMC3599193, “Expression of a secretory α-glucosidase II from Apis cerana indica in Pichia pastoris and its characterization” (BMC Biotechnology, 2013)
# What was measured:
# [1] = substrate: OC[C@H]1O[C@@](CO)(O[C@H]2O[C@H](CO)[C@@H](O)[C@H](O)[C@H]2O)[C@@H](O)[C@@H]1O; experiment: glucose release, glucose oxidase-peroxidase, Lineweaver-Burk; format: biochemical, Apis cerana; conditions: 0-20 mM substrate, sodium phosphate pH 5.5, 37°C (assay 'as above'), partially purified enzyme
# [2] = substrate: O=[N+]([O-])c1ccc(O[C@H]2O[C@H](CO)[C@@H](O)[C@H](O)[C@H]2O)cc1; experiment: purified protein; conditions: 0-25 mM substrate, sodium phosphate pH 5.5, 37°C (assay 'as above'), partially purified enzyme
protein,measurement,setting,value
"rAciHBGase II-(His)6 (Apis cerana indica) (protein, full-length cDNA (1,740 bp, 579 residues) in pPICZalphaA (EcoRI/KpnI), secreted from Pichia pastoris GS115, C-terminal His6 kept, partially purified by HisTrap, ~73 kDa) FRATITVPCLLLVASLVNSVDVNWYKNALVYQIYPRSFQDSNGDGIGDLNGITARIDHIADIGAQALWLSPIYKSPQVDFGYDISNFTDVDPDYGTLADFDRLVRRAKTLGLKVILDFVPNHSSHEHPWFKKSVQRIKPYDEYYVWRDARIVNGTRQPPNNWLSVFWGSAWEWNDVRQQYYLHQFAAGQPDLNYRSAALDQEMKNVLTFWMDRGVDGFRIDAINHMFEDKRLLDEPSANRTDLSKDDYESLVHVYTRDQNETYDVSRSWRNLMDEHSNRTNSDPRMILTEAYTEFNLTVKYYKSGSTVPFNFMFITDLNNQSTASDFKQLIDRWVGNVPNGSVTNWVSGNHDNHRVASRFGRQRADEILMLTLTLPGIGVVYNGDEIGMEDRPFTYAETVDPAGCNAGPAKYYLKSRDPERTPYQWDNSTSAGFSDRNKTWLPVNDNSRSLNLAAQKKEYYSHYVAFKSMSYLKKQPVIANGSLEVDVIDGKVLSVKRKLGNDTVIVMVNFSKNPVTINMSTLHPPADLVVYANNVIGSGLSHGNWIYPTSMTIPGSNSAIFTNYKLYWRYWQGVDGL",Km,[1],15.3 ± 0.87 mM
same,kcat,[1],845.0 ± 0.00 s⁻¹
same,Km,[2],4.20 ± 0.18 mM
same,kcat,[2],1.89 ± 0.11 s⁻¹
